Results on 129 substances are retold here after the supplement of paper PMC12042874.

± gives the uncertainty stated by the source.

A short description of this data set: amyloid nucleation score (Sup35N fusion, yeast selection) (log enrichment); library NNK3; higher = more nucleation; inactive = no reads after selection. The procedure, abridged: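 The nucleation score equals the log enrichment of output over input reads from DiMSum, centred on the mode score of non-aggregating sequences. It was computed only for sequences with 100 or more input reads. The reads came from Illumina sequencing of plasmid inserts from psi-negative yeast expressing Sup35N fused to peptides of 20 random codons, induced with 100 μM copper sulfate for 24 hours and grown 7 days at 30°C without adenine and uracil.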

With LHLMWMPVTCGEVALCDGQS, the amyloid nucleation score result is “inactive”.
The entry for LIDNRRFRHLLTRNVFVSHH is “inactive”; for YSCTFYTLCPENI it is 1.85 ± 0.07.
Consider QTSSTNPMVASKPQAQRACK, for which the amyloid nucleation score entry was “inactive”.
Turning to LVLGWWAIFGVDYGHSSYLL, the amyloid nucleation score result was “inactive”.
Under EIQSVMLYIASTFSILYLRH stands “inactive”.
LNLGHDGYPNTSARVFHFC: the amyloid nucleation score result is “inactive”.
Take PRWLPVDGYEDSGVVEDKES: the amyloid nucleation score result is “inactive”.
As for KYGENDLRFENITYLFGV, the amyloid nucleation score result was “inactive”.
Regarding CYYDEVFAFLSLMTFRIQNK, the amyloid nucleation score result is “inactive”.
Under YMRDVDFIRSEGG stands “inactive”; under NGFLNSINGTVMVQGYSTAF, “inactive”.
Under LRYWPVCLVQIAFDFTVTGV stands 1.97 ± 0.062.
Under FISLWQPPRL stands “inactive”; under AHWSEYDAKFTKRLV, “inactive”; under LNVRSI, “inactive”.
ACTLLCFRIAQLEFLWVRVD: the amyloid nucleation score entry is “inactive”.
Regarding EPGSANRSSESNCRVGGTDD, the amyloid nucleation score entry was “inactive”.
Turning to FVYILGTMMNRRGFDPWIGD, the amyloid nucleation score came to 0.631 ± 0.32.
The substance KLLSTRRCFRCLLGQWSLFM showed an amyloid nucleation score of 1.17 ± 0.14.
Under WRKTRGLNILRLWSLVSFRM stands “inactive”.
Take LVEMNFLAVINRFICSSSLP: the amyloid nucleation score result is “inactive”.
The entry for TSHNGPYLSMFFRVANT is “inactive”.
Under AQGVTHLWEARNLWVWVEDQ stands -0.316 ± 0.51.
The entry for FLDVFLEFSILIFPSVTFKC is “inactive”; for LEKELRLCSKAWLSSQISIV it is “inactive”; for IGSYIKEGCAITMSRPLFKG it is “inactive”.
Consider KFCASSCWMNYSVFGMYLSI, for which the amyloid nucleation score entry is “inactive”.
The entry for CFVGVTFDLSSDLCLFCNKV is “inactive”; for VSSWNSSMMIYMVLCIRMSG it is “inactive”; for TVSGLMVFVMHNGYS it is 1.45 ± 0.084.
The figure for YIGVYYLN is 0.431 ± 0.28; for VKSVLFDGKL it is “inactive”; for CNNNLGVVFPRFWSIFAKGC it is “inactive”.
The entry for GGCDL is “inactive”.
On to MSTMFVPLSCFSENKRQTLS, for which the amyloid nucleation score result is “inactive”.
The entry for REGCHPFELSDPDGDHLVRF is “inactive”; for PKFYH it is “inactive”.
MSSSIILWNFCNMDRCSLLV came in with an amyloid nucleation score of -0.084 ± 0.49.
With RWVICEFGR, the amyloid nucleation score result was “inactive”.
Under GTTRATPSGPLCMNGKENVV stands “inactive”; under DLQYLMLHVHNFYICDRYQP, “inactive”; under TQLIIAGFVPNYVVLPWSAH, 1.38 ± 0.11.
Turning to YDMTRHLYVSSPEIVKPY, the amyloid nucleation score entry is “inactive”.
The entry for HPLDYTVGSVVMGV is “inactive”; for LISINLVQTSPRPRHYYLCS it is “inactive”.
Consider TKSPSGTHFLLVRFWSRCGR, for which the amyloid nucleation score entry is “inactive”.
Take SGKSLDDRFSK: the amyloid nucleation score entry was “inactive”.
Under FIFAG stands “inactive”; under FMYMMFERQLPMWDNELLH, -0.251 ± 0.66.
As to TTNDWHTFSGMVIKGWHIGK, the amyloid nucleation score entry is “inactive”.
As for GPLFRLRMFL, the amyloid nucleation score result is “inactive”.
With TANLGRCYCKLSNFTSGWFL, the amyloid nucleation score result is “inactive”.
Under TDAYKLITFIFPCKYLVTVC stands “inactive”.
As for FQCRYLKHDDKDNYFKGNGK, the amyloid nucleation score entry is “inactive”.
Under YNTRGQSSFSPCEIMWLVHI stands “inactive”.
The figure for LHMEG is -0.611 ± 1.1.
The entry for LHNCPVDGWAAVSRSVVGRE is “inactive”.
Take WLSRPLCIIGWASRSMRGSH: the amyloid nucleation score entry was “inactive”.
Take HCQQGS: the amyloid nucleation score entry is “inactive”.
As for GVLLFLYCYLRGPLYSTTSV, the amyloid nucleation score result is “inactive”.
As for EFFAPSVTDQMLTFRLLYKT, the amyloid nucleation score amounted to 0.821 ± 0.26.
Under VSSILQRIISYFRTARFNYL stands “inactive”; under GEVNTAFYSWPAMPVLADYG, “inactive”.
Turning to DTSGSCSILTRSRNMSFWRR, the amyloid nucleation score entry was “inactive”.
TQLRTVCSTW: the amyloid nucleation score result is “inactive”.
The entry for DSSKWHAMYMLTKMKMTGWL is “inactive”; for GGSLGHSRLSKDVSVEESAW it is “inactive”; for SILTMLPKFGFVESLLECEG it is “inactive”.
The entry for LYSGFI is “inactive”; for LNFCDRTIEICRLEY it is “inactive”.
The entry for GLVLTPDEEMIRQWEMLTYG is “inactive”; for LMIISGCSHMSHSVRSTRGL it is -0.217 ± 0.58; for FTNFCS it is “inactive”.
For ANCSWWSWESMNCCYIGWIF, the amyloid nucleation score turned out to be 1.54 ± 0.071.
Under FNCLHIYWMM stands 0.372 ± 0.42; under EWGTWSTY, “inactive”.
The entry for VVGIKKDRNNTYDSSWLASC is “inactive”; for HRIVSFYRNSWVPSIFVYED it is “inactive”; for GGFRISHSIC it is “inactive”.
For NPECVGDAWTVVVDYTSLWE, the amyloid nucleation score result was “inactive”.
On to SDLYTIGVVPTLTFINAPCI, for which the amyloid nucleation score result was “inactive”.
For the substance HENYEFLFWWRESFS, the amyloid nucleation score entry was “inactive”.
The figure for MVWKHYTSLNRDCVFNICCW is 1.78 ± 0.063; for PLRLCNPLSGFVPLLFTAFR it is “inactive”; for SWTGCKYIQKYRCRRWCNNF it is “inactive”.
With RWCFCWICHYLDVLCHYCLH, the amyloid nucleation score result was “inactive”.
Regarding IGWGVQFELFGTWRVEIPLV, the amyloid nucleation score entry is “inactive”.
Under SDSSYSYTVF stands “inactive”.
For HVNNTKSSLVRLSVLMHSVS, the amyloid nucleation score entry is “inactive”.
Under EGRSNNLCSSSSLWQVHAAL stands “inactive”.
As to VTLVNKKGWSFATAITMWKR, the amyloid nucleation score result is “inactive”.
With PTIYRMFGVGQMVMN, the amyloid nucleation score entry was “inactive”.
The entry for VHLWGGRGHQLVWVHVRWGV is “inactive”; for FEKGSFLDRTESSHIGGLMH it is “inactive”; for FFECSRRSSVLVQMS it is “inactive”.
Turning to SLLLLSGFEVSSKR, the amyloid nucleation score result was “inactive”.
As for SLVGGICVRHREDVDTQKFK, the amyloid nucleation score entry was “inactive”.
For FSGRYGTRLPLYSGRFKWFI, the amyloid nucleation score entry is “inactive”.
The entry for TWYVLSNDNSCVYTGPTCQ is “inactive”; for SKVKFILTRVPLFLLRIAES it is “inactive”; for DCMNGLVCFFMMCRGSLIRD it is “inactive”.
The entry for AFKGRLLG is “inactive”; for MLFANRHNLESGWSL it is “inactive”; for EERRDLAPTDLTWKDFRALQ it is “inactive”.
For the substance SNLSNPLIVMKFYQAAMGVH, the amyloid nucleation score entry is “inactive”.
Under SFRFLV stands “inactive”; under RARALLAHLKVPSKPVFTAV, “inactive”.
Consider ILYVLCIFLCGAAIFSLTVL, for which the amyloid nucleation score entry is “inactive”.
Under RVSRAGMIMGPMLLFNKYFD stands “inactive”.
IGFAD: the amyloid nucleation score result is “inactive”.
Under PCLSDPSYIELNKLASVFTG stands “inactive”; under KLDSLPEYFSATLWLDMSVF, “inactive”.
For the substance TFLLLYGIMDSNVPTVRHAL, the amyloid nucleation score was determined as 0.846 ± 0.15.
For the substance VLAMIVRHRKYKIDFIFMLD, the amyloid nucleation score entry is “inactive”.
The entry for VCMFEFMDKFWNFVVTAEQC is “inactive”; for MIKMAIRNLGYCSDYRTLCR it is “inactive”.
The entry for FFPCTGVRHSRDIAVV is “inactive”.
MNCWYFLLGACWITIKHLFY: the amyloid nucleation score result was “inactive”.
Under TSVRELNLMPCDENSTICDI stands “inactive”; under KLNGFPWRPAWHEVMAGWVW, “inactive”; under CAVGISLRPFFMISLQLSYL, “inactive”.
Under MSGLLCAEIWSRCPASFIGD stands “inactive”; under KSDVS, “inactive”; under TFAMGLSARSISYCTNTRCP, 0.464 ± 0.4.
The figure for RWTLYSLSTYYQLCF is 0.685 ± 0.12; for NCHSFVYYSMLGVSLSISGN it is 2.29 ± 0.059.
For SSQLDHVRLSGYVLTLEGPF, the amyloid nucleation score result was “inactive”.
Under IYGVSESVYWIVWANIGVLQ stands “inactive”.
